Laboratory results as given in patent publication US20240124586A1 (WUXI BIOLOGICS IRELAND, published 2024).
Values belong to the binder of their own block, whether it stands above or below them.

Legend:
[1] = target: T1, human PD-1 on engineered CHO-S cells (W305-CHO-S.hPro1.C6) (human, UniProt Q15116 25-288); test: FACS on human PD-1 engineered cells
T1 construct: whole, on cells; also called human PD-1 engineered cells; PD-1+ cells
Protocol: (§1) Engineered human PD-1 expressing cells W305-CHO-S.hPro1.C6 were seeded at 1×10⁵ cells/well in U-bottom 96-well plates (COSTAR 3799). Antibodies with 3.16-fold titration in 1% BSA DPBS from 200 nM to 0.002 nM were added to the cells. The plates were incubated at 4° C. for 1 hour. After wash, […] 1:125 diluted PE-labeled goat anti-human antibody (Jackson 109-115-098) was added to each well and the plates were incubated at 4° C. for 1 hour. The binding of the antibodies onto the cells was tested by flow cytometry and the mean fluorescence intensity (MFI) was analyzed by FlowJo.

[2] = target: T2, human CTLA-4 on engineered 293F cells (W316-293F.hPro1.FL) (human, UniProt P16410 36-223); test: FACS on human CTLA-4 engineered cells
T2 construct: whole, on cells; also called human CTLA-4 engineered cells; CTLA-4+ cells
Protocol: (§2) 3.16-fold titrated Abs with 1% BSA DPBS from 200 nM to 0.002 nM were added to the cells. Plates were incubated at 4° C. for 1 hour. After wash, […] 1:150 diluted PE-labeled goat anti-human antibody (Jackson 109-115-098) was added to each well and the plates were incubated at 4° C. for 1 hour. The binding of the antibodies onto the cells was tested by flow cytometry and the mean fluorescence intensity (MFI) was analyzed by FlowJo.

[3] = target: T2, human CTLA-4 on engineered 293F cells …; test: FACS binding to human CTLA-4 engineered cells
Protocol: as §2

[4] = target: T1, human PD-1 on engineered CHO-S cells …; test: FACS binding to human PD-1 engineered cells
Protocol: as §1

[5] = target: T3, cynomolgus PD-1 on engineered 293F cells (W305-293F.cynoPro1.FL.pool) (cynomolgus); test: FACS binding to cynomolgus PD-1 engineered cells
T3 construct: whole, on cells; also called cynomolgus PD-1 engineered cells
Protocol: as §2, with “4.0-fold” for “3.16-fold”, “40 μg/ml” for “200 nM”, “0.0001526 μg/ml” for “0.002 nM”

[6] = target: T1, human PD-1 on engineered CHO-S cells …; test: FACS competition: blocks human PD-L1 protein (W315-hPro1.ECD.mFc) binding to human PD-1 engineered cells
Protocol: In order to test whether the bispecific antibodies could block hPD-L1 binding to hPD-1 protein, a competitive FACS was conducted. […] Plates were incubated at 4° C. for 1 hour. After wash, the binding of W315-hPro1.ECD.mFc to cell expressive human PD-1 was detected by FITC-labeled goat anti-mouse antibody (abcam 98716 1:125). The competition binding of antibodies to the cells was tested by flow cytometry and the mean fluorescence intensity (MFI) was analyzed by FlowJo.

T1 sequence (Q15116 25-288, change not shown): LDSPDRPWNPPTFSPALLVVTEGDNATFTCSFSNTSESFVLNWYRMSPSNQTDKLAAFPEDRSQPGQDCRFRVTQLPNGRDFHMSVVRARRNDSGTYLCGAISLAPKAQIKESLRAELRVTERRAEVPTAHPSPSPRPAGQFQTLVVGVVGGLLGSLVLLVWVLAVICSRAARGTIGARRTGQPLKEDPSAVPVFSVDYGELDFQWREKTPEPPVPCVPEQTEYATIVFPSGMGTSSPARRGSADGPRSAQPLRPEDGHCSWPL
T2 sequence (P16410 36-223, change not shown): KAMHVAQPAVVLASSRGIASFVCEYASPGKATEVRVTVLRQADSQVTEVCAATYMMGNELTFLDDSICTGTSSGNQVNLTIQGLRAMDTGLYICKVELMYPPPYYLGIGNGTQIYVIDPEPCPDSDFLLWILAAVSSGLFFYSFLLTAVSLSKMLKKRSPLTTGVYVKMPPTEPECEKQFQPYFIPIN

B2: U6T5.G25R.IgG4, bispecific anti-PD-1 x CTLA-4 (bispecific antibody)
heavy: EVQLLESGGGLVQPGGSLRLSCAASGFTFSSHAMSWVRQAPGKGLEWVSTITGGGGSIYYADSVKGRFTISRDNSKNTLYLQMNSLRAEDTAVYYCAKNRAGEGYFDYWGQGTLVTVSSASTKGPSVFPLAPCSRSTSESTAALGCLVKDYFPEPVTVSWNSGALTSGVHTFPAVLQSSGLYSLSSVVTVPSSSLGTKTYTCNVDHKPSNTKVDKRVGGGGSGGGGSQVQLVQSGAEVKKPGSSVKVSCKASGYTFTNYFMNWVRQAPGQGLEWMGRVDPEQGRADYAEKFKKRVTITADKSTSTAYMELSSLRSEDTAVYYCARRAMDNYGFAYWGQGTLVTVLEDLKNVFPPEVAVFEPSEAEISHTQKATLVCLATGFYPDHVELSWWVNGKEVHSGVCTDPQPLKEQPALQDSRYALSSRLRVSATFWQNPRNHFRCQVQFYGLSENDEWTQDRAKPVTQIVSAEAWGRYGPPCPPCPAPEFLGGPSVFLFPPKPKDTLMISRTPEVTCVVVDVSQEDPEVQFNWYVDGVEVHNAKTKPREEQFNSTYRVVSVLTVLHQDWLNGKEYKCKVSNKGLPSSIEKTISKAKGQPREPQVYTLPPSQEEMTKNQVSLTCLVKGFYPSDIAVEWESNGQPENNYKTTPPVLDSDGSFFLYSRLTVDKSRWQEGNVFSCSVMHEALHNHYTQKSLSLSLGK
light 1: SYELTQPLSVSVALGQTARITCGGDNIGNKDVHWYQQKPGQAPVLVIYRDSNRPSGIPEGFSGSNSGNTATLTISRAQAGDEADYYCQVWDSIWVFGGGTKLTVLGQPKAAPSVTLFPPSSEELQANKATLVCLISDFYPGAVTVAWKADSSPVKAGVETTTPSKQSNNKYAASSYLSLTPEQWKSHKSYSCQVTHEGSTVEKTVAPTECS
light 2: EIVLTQSPDFQSVTPKEKVTITCSANSALSYMYWYQQKPDQSPKLWVHGTSNLASGVPSRFSGSGSGTDFTLTINSLEAEDAATYYCHHWSNTQWTFGGGTKVEIKPDIQNPDPAVYQLRDSKSSDKSVCLFTDFDSQTQVSQSKDSDVYITDKCVLDMRSMDFKSNSAVAWSQKSDFACANAFQNSIIPEDTFFPSPESS
notes: also called U6T5.G25R.uIgG4; U6T5 in G25R format
EC50 [1]: 1.56 nM
EC50 [2]: 8.36 nM

B3: T4U6.G26R.IgG4, bispecific anti-CTLA-4 x PD-1 (bispecific antibody)
chain: QVQLQESGPGLVKPSETLSLTCSVTYHTITSGYDWTWIRKPPGKGMEWIGYISYSGNTNYNPSLKSRVTISRDTSKNQFFLKLSSVTAADTAVYYCASMMVPHYYVMDAWGQGTLVTVSSASTKGPSVFPLAPCSRSTSESTAALGCLVKDYFPEPVTVSWNSGALTSGVHTFPAVLQSSGLYSLSSVVTVPSSSLGTKTYTCNVDHKPSNTKVDKRVGGGGSGGGGSSYELTQPLSVSVALGQTARITCGGDNIGNKDVHWYQQKPGQAPVLVIYRDSNRPSGIPEGFSGSNSGNTATLTISRAQAGDEADYYCQVWDSIWVFGGGTKLTVLPDIQNPDPAVYQLRDSKSSDKSVCLFTDFDSQTQVSQSKDSDVYITDKCVLDMRSMDFKSNSAVAWSQKSDFACANAFQNSIIPEDTFFPSPESS
heavy: EVQLLESGGGLVQPGGSLRLSCAASGFTFSSHAMSWVRQAPGKGLEWVSTITGGGGSIYYADSVKGRFTISRDNSKNTLYLQMNSLRAEDTAVYYCAKNRAGEGYFDYWGQGTLVTVLEDLKNVFPPEVAVFEPSEAEISHTQKATLVCLATGFYPDHVELSWWVNGKEVHSGVCTDPQPLKEQPALQDSRYALSSRLRVSATFWQNPRNHFRCQVQFYGLSENDEWTQDRAKPVTQIVSAEAWGRYGPPCPPCPAPEFLGGPSVFLFPPKPKDTLMISRTPEVTCVVVDVSQEDPEVQFNWYVDGVEVHNAKTKPREEQFNSTYRVVSVLTVLHQDWLNGKEYKCKVSNKGLPSSIEKTISKAKGQPREPQVYTLPPSQEEMTKNQVSLTCLVKGFYPSDIAVEWESNGQPENNYKTTPPVLDSDGSFFLYSRLTVDKSRWQEGNVFSCSVMHEALHNHYTQKSLSLSLG
light: DIVMTQTPLSLSVTPGQPASISCRSSQSLLNSDGNTYLYWYLQKPGQSPQLLIYLVSKLGSGVPNRFSGSGSGTDFTLKISRVEAEDVGVYYCVQGTHDPWTFGGGTKVEIKRTVAAPSVFIFPPSDEQLKSGTASVVCLLNNFYPREAKVQWKVDNALQSGNSQESVTEQDSKDSTYSLSSTLTLSKADYEKHKVYACEVTHQGLSSPVTKSFNRGEC
notes: Light-heavy crossed chimeric Fab; first chain is T4-HC fused to U6-LC; T4 = WBP3162-1.146.19-z12; also called T4U6 antibody pair in G26R format
EC50 [3]: 5.91 nM
EC50 [4]: 4.78 nM

B4: U6T5.G19R.IgG4, bispecific anti-PD-1 x CTLA-4 (bispecific antibody)
heavy: EVQLLESGGGLVQPGGSLRLSCAASGFTFSSHAMSWVRQAPGKGLEWVSTITGGGGSIYYADSVKGRFTISRDNSKNTLYLQMNSLRAEDTAVYYCAKNRAGEGYFDYWGQGTLVTVLEDLKNVFPPEVAVFEPSEAEISHTQKATLVCLATGFYPDHVELSWWVNGKEVHSGVCTDPQPLKEQPALQDSRYALSSRLRVSATFWQNPRNHFRCQVQFYGLSENDEWTQDRAKPVTQIVSAEAWGRYGPPCPPCPAPEFLGGPSVFLFPPKPKDTLMISRTPEVTCVVVDVSQEDPEVQFNWYVDGVEVHNAKTKPREEQFNSTYRVVSVLTVLHQDWLNGKEYKCKVSNKGLPSSIEKTISKAKGQPREPQVYTLPPSQEEMTKNQVSLTCLVKGFYPSDIAVEWESNGQPENNYKTTPPVLDSDGSFFLYSRLTVDKSRWQEGNVFSCSVMHEALHNHYTQKSLSLSLGGGGGSGGGGSGGGGSGGGGSQVQLVQSGAEVKKPGSSVKVSCKASGYTFTNYFMNWVRQAPGQGLEWMGRVDPEQGRADYAEKFKKRVTITADKSTSTAYMELSSLRSEDTAVYYCARRAMDNYGFAYWGQGTLVTVSSASTKGPSVFPLAPCSRSTSESTAALGCLVKDYFPEPVTVSWNSGALTSGVHTFPAVLQSSGLYSLSSVVTVPSSSLGTKTYTCNVDHKPSNTKVDKRV
light 1: SYELTQPLSVSVALGQTARITCGGDNIGNKDVHWYQQKPGQAPVLVIYRDSNRPSGIPEGFSGSNSGNTATLTISRAQAGDEADYYCQVWDSIWVFGGGTKLTVLPDIQNPDPAVYQLRDSKSSDKSVCLFTDFDSQTQVSQSKDSDVYITDKCVLDMRSMDFKSNSAVAWSQKSDFACANAFQNSIIPEDTFFPSPESS
light 2: EIVLTQSPDFQSVTPKEKVTITCSANSALSYMYWYQQKPDQSPKLWVHGTSNLASGVPSRFSGSGSGTDFTLTINSLEAEDAATYYCHHWSNTQWTFGGGTKVEIKRTVAAPSVFIFPPSDEQLKSGTASVVCLLNNFYPREAKVQWKVDNALQSGNSQESVTEQDSKDSTYSLSSTLTLSKADYEKHKVYACEVTHQGLSSPVTKSFNRGEC
notes: also called U6T5 in G19R format
EC50 [1]: 1.26 nM
EC50 [2]: 8.23 nM

Results, then the binder that gave them:

EC50 [1]: 0.97 nM
EC50 [2]: 8.93 nM
B1: U6T5.G19.IgG4, bispecific anti-PD-1 x CTLA-4 (bispecific antibody)
heavy: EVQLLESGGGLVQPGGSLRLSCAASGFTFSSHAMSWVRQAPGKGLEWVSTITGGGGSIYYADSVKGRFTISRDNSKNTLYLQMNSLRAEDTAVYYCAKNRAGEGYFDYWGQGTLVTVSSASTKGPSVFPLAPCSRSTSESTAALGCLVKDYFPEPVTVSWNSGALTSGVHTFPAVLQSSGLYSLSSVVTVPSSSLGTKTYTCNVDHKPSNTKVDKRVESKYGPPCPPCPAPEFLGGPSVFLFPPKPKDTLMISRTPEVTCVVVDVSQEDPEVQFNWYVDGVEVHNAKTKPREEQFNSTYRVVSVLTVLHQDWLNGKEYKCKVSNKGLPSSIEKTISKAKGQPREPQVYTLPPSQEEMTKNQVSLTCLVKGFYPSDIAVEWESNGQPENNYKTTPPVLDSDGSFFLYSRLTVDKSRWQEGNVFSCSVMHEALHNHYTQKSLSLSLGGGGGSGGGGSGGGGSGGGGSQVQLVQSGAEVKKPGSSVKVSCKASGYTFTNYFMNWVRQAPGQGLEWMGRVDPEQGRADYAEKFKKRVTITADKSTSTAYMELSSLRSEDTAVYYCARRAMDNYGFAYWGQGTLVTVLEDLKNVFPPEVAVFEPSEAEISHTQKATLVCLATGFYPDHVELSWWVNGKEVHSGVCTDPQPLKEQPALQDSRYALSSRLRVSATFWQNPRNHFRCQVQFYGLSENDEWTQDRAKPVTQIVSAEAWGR
light 1: B2 light 1
light 2: B2 light 2
notes: T5 = anti-CTLA-4 antibody W3162_1.154.8-z35; also called U6T5 in G19 format

EC50 [5]: 3.48 nM
Top(MFI) [5]: 56700 MFI
IC50 [6]: 0.888 nM
Inhibition % [6]: 98.6%
B5: WBP3055_1.153.7.hAb (antibody, V domains shown)
VH: EVQLLESGGGLVQPGGSLRLSCAASGFTFSSHAMSWVRQAPGKGLEWVSTITGGGGSIYYADSVKGRFTISRDNSKNTLYLQMNSLRAEDTAVYYCAKNRAGEGYFDYWGQGTLVTVSS
VL: SYELTQPLSVSVALGQTARITCGGDNIGNKDVHWYQQKPGQAPVLVIYRDSNRPSGIPEGFSGSNSGNTATLTISRAQAGDEADYYCQVWDSIWVFGGGTKLTVL
notes: anti-PD-1 antibody, parent of the U6 arm; also called W3055_1.153.7 (named U6); WBP3055-1.153.7.uIgG4k
